The record followed here is patent publication US20190359687A1 (Bayer, published 2019).

The target in assay [1] is T1, recombinant human GPA ectodomain (human, UniProt P02724 20-91).
T1 construct: also called recombinant hGPA ECD; recGPA
T1 sequence: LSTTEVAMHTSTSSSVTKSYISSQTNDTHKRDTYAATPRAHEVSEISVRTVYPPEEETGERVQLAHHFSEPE
Description: SPR, IgG; SPR, IgG form, recombinant human GPA ectodomain.

Assay [2] addresses T2, purified human glycophorin A protein (Sigma, cat # G5017) (human, UniProt P02724 20-150).
T2 construct: mature; also called Sigma hGPA; Sigma GPA
T2 sequence (looked up): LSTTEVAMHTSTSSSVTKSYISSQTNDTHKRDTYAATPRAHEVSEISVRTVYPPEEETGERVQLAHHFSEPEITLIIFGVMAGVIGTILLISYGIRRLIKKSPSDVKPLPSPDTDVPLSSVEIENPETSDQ
Put plainly: ELISA, hGPA.
Description: Hybridomas were generated from the spleen cells of these mice and these hybriomas were screened first by fluorescence activated cell sorting (FACS) against isolated human and monkey (Cynomolgus monkey and Rhesus monkey) red blood cells (RBC) and then by ELISA against purified human glycophorin A protein (GPA). Isolated RBC were prepared from whole blood from normal human, cynomolgus monkey, and beagle dog, were anticoagulant with sodium heparin (Bioreclamation). 2-3 mL of whole blood was loaded gently on the top of 3 mL Ficoll Plus (Sigma Aldrich) then centrifuged at 500 g for 20 min at room temperature (RT). The RBC pellets were washed 3 times with 10 mL of PBS, and centrifuge 400 g for 10 min at RT. RBC pellets were re-suspended in PBS at the same total volume as the original blood volume to achieve the same RBC cell density as in whole blood and stored at 4° C. Purified human glycophorin A protein was obtained from Sigma Aldrich and coated on ELISA plates at 2 ug/ml. Binding of antibodies to human GPA was detected using appropriate secondary antibodies using methods well known in the art.

The target in a further assay is T3, dog red blood cells (dog).
T3 construct: also called dog RBC
Description: FACS, dog RBC.

Assay [3] addresses T4, Cynomolgus monkey glycophorin A on Cynomolgus monkey red blood cells (Cynomolgus monkey).
T4 construct: whole, on cells; also called Cyno RBC; Cyno GPA
Put plainly: FACS, Cyno RBC.

The target of assay [4] is T5, human glycophorin A in the red blood cell membrane (human, UniProt P02724 20-150).
T5 construct: whole, on cells; used for intact RBC, isolated RBC membranes and transfected cells; the assay field tells which; also called GPA; hGPA
T5 sequence (looked up): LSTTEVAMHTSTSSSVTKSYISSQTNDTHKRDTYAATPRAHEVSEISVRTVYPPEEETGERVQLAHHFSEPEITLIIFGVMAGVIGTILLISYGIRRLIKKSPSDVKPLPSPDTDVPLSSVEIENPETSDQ
Put plainly: FACS, hu RBC.

Assay [5] concerns the target T2, purified human glycophorin A protein …. Put plainly: ELISA, purified IgG.
Description: The “Sigma GPA” is a crude preparation of human GPA extracted from human red blood cells and is therefore representative of the highly glycosylated form of the native protein.
EC 50 values were determined from a dilution curve of the antibody. Sigma GPA is partially purified GPA extracted from human red blood cells and purchased from Sigma Chemical Company (cat # G5017), asialo hGPA is human GPA that was desialylated and ECD is the recombinantly expressed ectodomain which is the extracellular portion of GPA.
Assay [6] shares this target. Description: ELISA, native hGPA.
The target of assay [7] is T5, human glycophorin A in the red blood …. Description: SPR single cycle kinetics, human RBC membranes on L1 sensor; single cycle kinetics, FIG. 6.
Description: Kinetic analysis of the antibody binding to human red blood cell membranes was also performed using surface plasmon resonance (SPR) using a Biacore instrument. In this assay membranes prepared from human red blood cells were attached to a L1 sensor matrix and antibodies were flowed over the RBC membranes.
Assay [8] has the same target. Put plainly: ELISA, human RBC membranes.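 Further: antibodies bound to isolated human red blood cell membrane ghosts coated on 96-well plates, tested 1.5 h at room temperature, bound antibody quantified with a detection antibody.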
Description: In order to evaluate binding of antibodies to GPA in the native context of the red blood cell membrane we made use of isolated red blood cell membranes, also called red blood cells ghosts. These membranes are prepared by first isolating red blood cells from citrated whole blood. Citrated whole blood is layered on to Ficol and centrifuged at low speed for 20 minutes to pellet the red blood cells. The supernatant containing plasma and other blood cells is discarded and the red blood cell pellet is subsequently washed 3 times in 10 cell volumes of phosphate buffered saline (PBS). A 10 ml pellet of purified red blood cells is resuspended in 30 ml of cold low osmorality 20 mM phosphate buffer (pH7.4) and incubated for 30 mins to break open the RBC. After Centrifugation at 10,000 rpm for 30 min at 5° C. the hemoglobin containing supernatant is discarded. To the membrane pellet another 30 ml of 20 mM phosphate buffer is added and the sample centrifuged again at 10,000 rpm for 30 min at 5° C. to pellet the membrane fraction. This wash and centrifugation step is repeated another 4 times. The red blood cell membranes are then resuspended in 20 mL of PBS to achieve an equivalent of approximately 2.5E9 cells/mL and stored frozen at −20° C. Binding of antibodies to RBC ghost can be measured by ELISA in which the RBC ghost suspension (5×10⁶ in 100 ul PBS) was added to each well of flat bottom 96-well ELISA microtiter plates (2HB, Immunolon) and the plates incubated overnight at 4° C. The plates were blocked with Starting blocking buffer (Thermo Fisher) for 2 hours at room temperature (RT). Antibodies or other test molecules were added to each well and incubated for 1.5 hours at RT. After 4 washes 100 ul of an appropriate detection antibody was added to each well and incubated for 1 hour at RT. After 4 washes the detection antibody was measured using appropriate detection reagents.
The target of assay [9] is T1, recombinant human GPA ectodomain. Description: ELISA, rec hGPA ectodomain.

B1: 7G4E9/A8 (antibody, V domains shown)
VH: QVQLKESGPGLVAPSQSLSITCTVSGFSLTRFGISWVRQPPGKGLEWMGVIWGDGSTDYHSALISRLSITKDNSKSQVFFRLNSLQSDDSATYYCARSFGMDYWGQGTSVTVSS
VL: NIMMTQSPSSLAVSAGEKVTMSCKSSQSILNSSNQKNYLAWYQQKPGQSPKLLIYWASTRESGVPDRFTGSGSGTDFTLTISSVQAEDLAVYYCHQYFSSRTFGGGTKLEIK
notes: as m8
Take B1: the Kd in assay [1] worked out at 5.92 nM. Moreover, the koff in assay [1] came to 0.00046 s⁻¹. Also, the kon in assay [1] came out at 77700 M⁻¹ s⁻¹. The t½ in assay [1] stood at 25.1 min. Also, the EC50 in [2] was found to be 0.071 nM; in assay [5], 0.33 nM. Also, the figures for the FACS signal (in the assay with dog red blood cells; in [3]; in [4]) were 0.98 relative flourescence units, 8 relative flourescence units and 2830 relative flourescence units, respectively.

B2: TPP-4935 (Fab, V domains shown)
VH: EVQLVQSGAEVKKPGASVKVSCKASGYTFTTYTIHWVRQAPGQGLEWIGYINPSSDYTRYNPKFKDRVTLTTDKSTSTAYMELRSLRSDDTAVYYCQTGTRDYWGQGTTVTVSS
VL: DIQLTQSPSFLSASVGDRVTITCSAASSVSYIYWFQQKPGKAPKLLIYSTSTLPSGVPSRFSGSGSGTEYTLTISSLQPEDFATYYCHQRNSFPFTFGQGTKLEIKR
notes: also called Parental; hu6C12-24 parental Fab
For the molecule B2, the “binding by ELISA relative to parental” value came to 1 in assay [6] and 0.99 in assay [8]. This molecule also yielded a Kd in assay [7] of 130 nM.

B3: TPP-5340 (Fab, V domains shown)
VH: EVQLVQSGAEVKKPGASVKVSCKASGYTFTTYTIHWVRQAPGQGLEWIGYINPSSDYTRYNPKFKDRVTLTTDKSTSTAYMELRSLRSDDTAVYYCQTGTRDYWGQGTTVTVSS
VL: DIQLTQSPSFLSASVGDRVTITCRAASSVSYIYWFQQKPGKAPKLLIYSTSTLPSGVPSRFSGSGSGTEYTLTISSLQPEDFATYYCHQRNSFPFTFGQGTKLEIKR
notes: also called VL: (S24R)
For the molecule B3, the “binding by ELISA relative to parental” value in assay [6] was found to be 1.17; in assay [8] it was 0.9; in [9], 1.23. In addition, the Kd in [7] amounted to 25 nM.

B4: TPP-5341 (Fab, V domains shown)
VH: EVQLVQSGAEVKKPGASVKVSCKASGYTFTTYTIHWVRQAPGQGLEWIGYINPSSDYTRYNPKFKDRVTLTTDKSTSTAYMELRSLRSDDTAVYYCQTGTRDYWGQGTTVTVSS
VL: DIQLTQSPSFLSASVGDRVTITCSASSSVSYIYWFQQKPGKAPKLLIYSTSTLPSGVPSRFSGSGSGTEYTLTISSLQPEDFATYYCHQRNSFPFTFGQGTKLEIKR
notes: also called VL: (A26S)
Take B4: the figures for the “binding by ELISA relative to parental” value in [6], in [8] and in [9] were 1.03, 0.82 and 1.19, respectively. Moreover, the Kd in assay [7] is 34 nM.
